Measured values taken from the supplement of paper PMC10567573.

B1: C2CD2L (parent)
chain: EPAGSLRELGVWRSLLRLRATRAG

Variants of: B1
Test: protein stability index of a GFP-peptide fusion (GPS, HEK-293T) (PSI 1-6); higher = more stable
Conditions: c terminus: a fixed tail appended
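Also: lentivirally expressed fusions sorted by FACS into six bins by GFP to DsRed ratio, PSI derived from sequencing read proportions per bin multiplied by bin number.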

Compared with EPAGSLRELGVWRSLIRLRATRAG [L16I], EPAGSLRELGVWRSLRRLRATRAG [L16R] is higher in protein stability index: 2.36 for the first, 2.57 for the second.

Compared with EPAGSLRELGVWRSLTRLRATRAG [L16T], EPAGSLRELGVWRSLKRLRATRAG [L16K] is higher in protein stability index: 2.74 for the first, 3.56 for the second.

Going from EPAGSLRELGVWRSLPRLRATRAG [L16P] to EPAGSLRELGVWRSLFRLRATRAG [L16F], the protein stability index falls from 4.09 to 2.26.

Compared with EPAGSLRELGVWRSLGRLRATRAG [L16G], EPAGSLRELGVWRSLYRLRATRAG [L16Y] is lower in protein stability index: 3.32 for the first, 2.3 for the second.

Going from LPAGSLRELGVWRSLLRLRATRAG [E1L] to RPAGSLRELGVWRSLLRLRATRAG [E1R], the protein stability index falls from 2.31 to 2.25.

First: IPAGSLRELGVWRSLLRLRATRAG [E1I]
Second: NPAGSLRELGVWRSLLRLRATRAG [E1N]
The protein stability index of the first is lower: 1.91 for the first, 2.09 for the second.

Going from TPAGSLRELGVWRSLLRLRATRAG [E1T] to PPAGSLRELGVWRSLLRLRATRAG [E1P], the protein stability index rises from 1.84 to 2.25.

First: MPAGSLRELGVWRSLLRLRATRAG [E1M]
Second: FPAGSLRELGVWRSLLRLRATRAG [E1F]
The protein stability index of the first is lower: 1.91 for the first, 2.41 for the second.

Going from EPAGSLRELGVWRWLLRLRATRAG [S14W] to EPAGSLRELGVWRLLLRLRATRAG [S14L], the protein stability index falls from 2.5 to 1.33.

First: EPAGSLRELGVWRRLLRLRATRAG [S14R]
Second: EPAGSLRELGVWRDLLRLRATRAG [S14D]
The protein stability index of the first is higher: 1.91 for the first, 1.56 for the second.

Going from EPAGSLRELGVWRALLRLRATRAG [S14A] to EPAGSLRELGVWRVLLRLRATRAG [S14V], the protein stability index falls from 1.66 to 1.02.

First: EPAGSLRELGVWRMLLRLRATRAG [S14M]
Second: EPAGSLRELGVWRELLRLRATRAG [S14E]
The protein stability index of the first is lower: 2.41 for the first, 2.47 for the second.

Going from EPAGSLRELGVWRGLLRLRATRAG [S14G] to EPAGSLRELGVWRPLLRLRATRAG [S14P], the protein stability index rises from 1.42 to 2.98.

Going from EPAGSLRELGVWRQLLRLRATRAG [S14Q] to EPAGSLRELGVWRFLLRLRATRAG [S14F], the protein stability index rises from 2.12 to 2.14.

Going from EPAGSLRELGVWRKLLRLRATRAG [S14K] to EPANSLRELGVWRSLLRLRATRAG [G4N], the protein stability index rises from 1.96 to 1.98.

Compared with EPAESLRELGVWRSLLRLRATRAG [G4E], EPAFSLRELGVWRSLLRLRATRAG [G4F] is lower in protein stability index: 3.52 for the first, 2.49 for the second.

Compared with EPATSLRELGVWRSLLRLRATRAG [G4T], EPAQSLRELGVWRSLLRLRATRAG [G4Q] is higher in protein stability index: 2.4 for the first, 3.42 for the second.

First: EPAMSLRELGVWRSLLRLRATRAG [G4M]
Second: EPAISLRELGVWRSLLRLRATRAG [G4I]
The protein stability index of the first is higher: 2.39 for the first, 2.07 for the second.

Going from EPACSLRELGVWRSLLRLRATRAG [G4C] to EPAPSLRELGVWRSLLRLRATRAG [G4P], the protein stability index rises from 2.04 to 3.02.

First: EPADSLRELGVWRSLLRLRATRAG [G4D]
Second: EPASSLRELGVWRSLLRLRATRAG [G4S]
The protein stability index of the first is higher: 3.19 for the first, 2.4 for the second.

First: EPAYSLRELGVWRSLLRLRATRAG [G4Y]
Second: EPALSLRELGVWRSLLRLRATRAG [G4L]
The protein stability index of the first is higher: 3.48 for the first, 1.97 for the second.

Compared with EPAGRLRELGVWRSLLRLRATRAG [S5R], EPAGVLRELGVWRSLLRLRATRAG [S5V] is higher in protein stability index: 2.03 for the first, 2.04 for the second.

First: EPAGALRELGVWRSLLRLRATRAG [S5A]
Second: EPAGWLRELGVWRSLLRLRATRAG [S5W]
The protein stability index of the first is higher: 2.31 for the first, 1.82 for the second.

Going from EPAGYLRELGVWRSLLRLRATRAG [S5Y] to EPAGDLRELGVWRSLLRLRATRAG [S5D], the protein stability index falls from 2.73 to 2.56.

First: EPAGELRELGVWRSLLRLRATRAG [S5E]
Second: EPAGCLRELGVWRSLLRLRATRAG [S5C]
The protein stability index of the first is higher: 3.05 for the first, 2.36 for the second.

First: EPAGFLRELGVWRSLLRLRATRAG [S5F]
Second: EPAGSLRELGVWTSLLRLRATRAG [R13T]
The protein stability index of the first is lower: 1.21 for the first, 2.05 for the second.

Going from EPAGSLRELGVWDSLLRLRATRAG [R13D] to EPAGSLRELGVWYSLLRLRATRAG [R13Y], the protein stability index falls from 2.62 to 1.91.

First: EPAGSLRELGVWQSLLRLRATRAG [R13Q]
Second: EPAGSLRELGVWPSLLRLRATRAG [R13P]
The protein stability index of the first is higher: 2.56 for the first, 2.55 for the second.

Going from EPAGSLRELGVWFSLLRLRATRAG [R13F] to EPAGSLRELGVWHSLLRLRATRAG [R13H], the protein stability index rises from 1.81 to 2.86.

First: EPAGSLRELGVARSLLRLRATRAG [W12A]
Second: EPAGSLRELGVERSLLRLRATRAG [W12E]
The protein stability index of the first is lower: 3.02 for the first, 3.84 for the second.

Going from EPAGSLRELGVTRSLLRLRATRAG [W12T] to EPAGSLRELGVMRSLLRLRATRAG [W12M], the protein stability index falls from 4.02 to 2.42.

First: EPAGSLRELGVQRSLLRLRATRAG [W12Q]
Second: EPAGSLRELGVCRSLLRLRATRAG [W12C]
The protein stability index of the first is higher: 3.87 for the first, 3.48 for the second.

Compared with EPAGSLRELGVDRSLLRLRATRAG [W12D], EPAGSLRELGVPRSLLRLRATRAG [W12P] is higher in protein stability index: 1.9 for the first, 3.7 for the second.

First: EPAGSLRELGVSRSLLRLRATRAG [W12S]
Second: EPAGSLRTLGVWRSLLRLRATRAG [E8T]
The protein stability index of the first is higher: 4.37 for the first, 2.1 for the second.

First: EPAGSLRNLGVWRSLLRLRATRAG [E8N]
Second: EPAGSLRMLGVWRSLLRLRATRAG [E8M]
The protein stability index of the first is higher: 3 for the first, 1.73 for the second.

Going from EPAGSLRRLGVWRSLLRLRATRAG [E8R] to EPAGSLRPLGVWRSLLRLRATRAG [E8P], the protein stability index rises from 2.06 to 2.93.

Compared with EPAGSLRILGVWRSLLRLRATRAG [E8I], EPAGSLRSLGVWRSLLRLRATRAG [E8S] is higher in protein stability index: 1.57 for the first, 2.49 for the second.

Compared with EPAGSLRFLGVWRSLLRLRATRAG [E8F], EPAGSLRDLGVWRSLLRLRATRAG [E8D] is higher in protein stability index: 2.9 for the first, 3.43 for the second.

Going from EPAGSLREWGVWRSLLRLRATRAG [L9W] to EPAGSLREQGVWRSLLRLRATRAG [L9Q], the protein stability index rises from 2.37 to 2.77.

First: EPAGSLRECGVWRSLLRLRATRAG [L9C]
Second: EPAGSLREFGVWRSLLRLRATRAG [L9F]
The protein stability index of the first is lower: 3.04 for the first, 3.97 for the second.

First: EPAGSLREYGVWRSLLRLRATRAG [L9Y]
Second: EPAGSLREIGVWRSLLRLRATRAG [L9I]
The protein stability index of the first is higher: 4.48 for the first, 1.71 for the second.

Going from EPAGSLREPGVWRSLLRLRATRAG [L9P] to EPAGSLREEGVWRSLLRLRATRAG [L9E], the protein stability index falls from 3.7 to 3.3.

Going from EPAGSLRETGVWRSLLRLRATRAG [L9T] to EPAGSLREMGVWRSLLRLRATRAG [L9M], the protein stability index falls from 2.92 to 2.07.

First: EPAGSLRESGVWRSLLRLRATRAG [L9S]
Second: EPAGSLREGGVWRSLLRLRATRAG [L9G]
The protein stability index of the first is lower: 3.16 for the first, 3.69 for the second.

Going from EPAGSLRELGRWRSLLRLRATRAG [V11R] to EPAGSLRELGHWRSLLRLRATRAG [V11H], the protein stability index rises from 2.25 to 3.11.

First: EPAGSLRELGNWRSLLRLRATRAG [V11N]
Second: EPAGSLRELGIWRSLLRLRATRAG [V11I]
The protein stability index of the first is higher: 3.27 for the first, 2.5 for the second.

Compared with EPAGSLRELGTWRSLLRLRATRAG [V11T], EPAGSLRELGKWRSLLRLRATRAG [V11K] is higher in protein stability index: 2.95 for the first, 3.37 for the second.
